Here are results for two molecules from publication PMC4609182 (2015).

One experiment deals with Ub (Homo sapiens). In words: ITC.
The target of experiment [1] is T1, Parkin R0RBR module (RING0, RING1, IBR, RING2), wild type (rat, UniProt Q9JK66 141-465).
T1 chain: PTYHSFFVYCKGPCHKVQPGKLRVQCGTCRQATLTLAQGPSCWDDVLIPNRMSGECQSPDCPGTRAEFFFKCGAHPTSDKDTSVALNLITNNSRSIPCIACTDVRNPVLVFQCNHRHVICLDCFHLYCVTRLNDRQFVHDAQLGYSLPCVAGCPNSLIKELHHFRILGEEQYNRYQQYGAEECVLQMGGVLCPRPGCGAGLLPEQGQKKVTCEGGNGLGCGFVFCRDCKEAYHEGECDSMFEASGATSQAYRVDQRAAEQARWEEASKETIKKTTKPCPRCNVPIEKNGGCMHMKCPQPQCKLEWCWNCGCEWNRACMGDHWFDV
In words: ITC.

B1: Parkin R0RBR module (RING0, RING1, IBR, RING2), wild type (domain or fragment)
chain: PTYHSFFVYCKGPCHKVQPGKLRVQCGTCRQATLTLAQGPSCWDDVLIPNRMSGECQSPDCPGTRAEFFFKCGAHPTSDKDTSVALNLITNNSRSIPCIACTDVRNPVLVFQCNHRHVICLDCFHLYCVTRLNDRQFVHDAQLGYSLPCVAGCPNSLIKELHHFRILGEEQYNRYQQYGAEECVLQMGGVLCPRPGCGAGLLPEQGQKKVTCEGGNGLGCGFVFCRDCKEAYHEGECDSMFEASGATSQAYRVDQRAAEQARWEEASKETIKKTTKPCPRCNVPIEKNGGCMHMKCPQPQCKLEWCWNCGCEWNRACMGDHWFDV
modifications: unmodified (non-phosphorylated) ubiquitin; only the figure label 'Ub' is given, so wild type is assumed (the non-phosphorylatable control in Fig EV3B is a separate His-tagged UbS65A)
A word on the Kd: it is the free concentration of one partner at which half of the binding sites on the other are occupied at equilibrium, for simple one-to-one binding. A low value points to higher affinity. In the experiment with Ub, B1 yielded a Kd of 41 µM.

B2: Parkin Ubl domain (ubiquitin-like domain), unmodified (domain or fragment)
chain: MIVFVRFNSSYGFPVEVDSDTSIFQLKEVVAKRQGVPADQLRVIFAGKELQNHLTVQNCDLEQQSIVHIVQRPQRK
In experiment [1], B2 yielded a Kd of 14 µM.
